Article PMC10705377

Target: GluA2-TARPγ2 fusion construct (rat GluA2, GT linker, mouse TARPγ2 truncated following M4) (rat | mouse)
Experiment: cryo-EM structure

- stoichiometry N: 4
Substance: GluA2-TARPγ2 fusion construct (rat GluA2, GT linker, mouse TARPγ2 truncated following M4) (receptor)
